Results reported in article PMC10540216, “Activity Guided Azide-methyllysine Photo-trapping for Substrate Profiling of Lysine Demethylases” (Journal of the American Chemical Society, 2023).

Test system: KDM4A-I71AzF
Experiment: CASI: photo-crosslinking with HEK293T cell extracts, StrepTactin enrichment and LC-MS/MS proteomics;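 also: lysates from HEK293T cells pretreated with a KDM4 inhibitor to raise proteome methylation, affinity-purified after ±UV, gel-resolved, trypsin-digested, with exclusive unique peptides per protein averaged per condition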
Type: binding, human
Conditions: sheet "Final results but with 0.01"

B1: NOMO1_HUMAN (protein, UniProt Q15155 32-1222, looked up)
BOS complex subunit NOMO1: SEDIVVGCGGFVKSDVEINYSLIEIKLYTKHGTLKYQTDCAPNNGYFMIPLYDKGDFILKIEPPLGWSFEPTTVELHVDGVSDICTKGGDINFVFTGFSVNGKVLSKGQPLGPAGVQVSLRNTGTEAKIQSTVTQPGGKFAFFKVLPGDYEILATHPTWALKEASTTVRVTNSNANAASPLIVAGYNVSGSVRSDGEPMKGVKFLLFSSLVTKEDVLGCNVSPVPGFQPQDESLVYLCYTVSREDGSFSFYSLPSGGYTVIPFYRGERITFDVAPSRLDFTVEHDSLKIEPVFHVMGFSVTGRVLNGPEGDGVPEAVVTLNNQIKVKTKADGSFRLENITTGTYTIHAQKEHLYFETVTIKIAPNTPQLADIIATGFSVCGQISIIRFPDTVKQMNKYKVVLSSQDKDKSLVTVETDAHGSFCFKAKPGTYKVQVMVPEAETRAGLTLKPQTFPLTVTNRPMMDVAFVQFLASVSGKVSCLDTCGDLLVTLQSLSRQGEKRSLQLSGKVNAMTFTFDNVLPGKYKISIMHEDWCWKNKSLEVEVLEDDMSAVEFRQTGYMLRCSLSHAITLEFYQDGNGRENVGIYNLSKGVNRFCLSKPGVYKVTPRSCHRFEQAFYTYDTSSPSILTLTAIRHHVLGTITTDKMMDVTVTIKSSIDSEPALVLGPLKSVQELRREQQLAEIEARRQEREKNGNEEGEERMTKPPVQEMVDELQGPFSYDFSYWARSGEKITVTPSSKELLFYPPSMEAVVSGESCPGKLIEIHGKAGLFLEGQIHPELEGVEIVISEKGASSPLITVFTDDKGAYSVGPLHSDLEYTVTSQKEGYVLTAVEGTIGDFKAYALAGVSFEIKAEDDQPLPGVLLSLSGGLFRSNLLTQDNGILTFSNLSPGQYYFKPMMKEFRFEPSSQMIEVQEGQNLKITITGYRTAYSCYGTVSSLNGEPEQGVAMEAVGQNDCSIYGEDTVTDEEGKFRLRGLLPGCVYHVQLKAEGNDHIERALPHHRVIEVGNNDIDDVNIIVFRQINQFDLSGNVITSSEYLPTLWVKLYKSENLDNPIQTVSLGQSLFFHFPPLLRDGENYVVLLDSTLPRSQYDYILPQVSFTAVGYHKHITLIFNPTRKLPEQDIAQGSYIALPLTLLVLLAGYNHDKLIPLLLQLTSRLQGVRALGQAASDNSGPEDAKRQAKKQKTRRT
- Fold change (+UV/-UV): 0

B2: SMC1A_HUMAN (protein, UniProt Q14683 1-1233, looked up)
Structural maintenance of …: MGFLKLIEIENFKSYKGRQIIGPFQRFTAIIGPNGSGKSNLMDAISFVLGEKTSNLRVKTLRDLIHGAPVGKPAANRAFVSMVYSEEGAEDRTFARVIVGGSSEYKINNKVVQLHEYSEELEKLGILIKARNFLVFQGAVESIAMKNPKERTALFEEISRSGELAQEYDKRKKEMVKAEEDTQFNYHRKKNIAAERKEAKQEKEEADRYQRLKDEVVRAQVQLQLFKLYHNEVEIEKLNKELASKNKEIEKDKKRMDKVEDELKEKKKELGKMMREQQQIEKEIKEKDSELNQKRPQYIKAKENTSHKIKKLEAAKKSLQNAQKHYKKRKGDMDELEKEMLSVEKARQEFEERMEEESQSQGRDLTLEENQVKKYHRLKEEASKRAATLAQELEKFNRDQKADQDRLDLEERKKVETEAKIKQKLREIEENQKRIEKLEEYITTSKQSLEEQKKLEGELTEEVEMAKRRIDEINKELNQVMEQLGDARIDRQESSRQQRKAEIMESIKRLYPGSVYGRLIDLCQPTQKKYQIAVTKVLGKNMDAIIVDSEKTGRDCIQYIKEQRGEPETFLPLDYLEVKPTDEKLRELKGAKLVIDVIRYEPPHIKKALQYACGNALVCDNVEDARRIAFGGHQRHKTVALDGTLFQKSGVISGGASDLKAKARRWDEKAVDKLKEKKERLTEELKEQMKAKRKEAELRQVQSQAHGLQMRLKYSQSDLEQTKTRHLALNLQEKSKLESELANFGPRINDIKRIIQSREREMKDLKEKMNQVEDEVFEEFCREIGVRNIREFEEEKVKRQNEIAKKRLEFENQKTRLGIQLDFEKNQLKEDQDKVHMWEQTVKKDENEIEKLKKEEQRHMKIIDETMAQLQDLKNQHLAKKSEVNDKNHEMEEIRKKLGGANKEMTHLQKEVTAIETKLEQKRSDRHNLLQACKMQDIKLPLSKGTMDDISQEEGSSQGEDSVSGSQRISSIYAREALIEIDYGDLCEDLKDAQAEEEIKQEMNTLQQKLNEQQSVLQRIAAPNMKAMEKLESVRDKFQETSDEFEAARKRAKKAKQAFEQIKKERFDRFNACFESVATNIDEIYKALSRNSSAQAFLGPENPEEPYLDGINYNCVAPGKRFRPMDNLSGGEKTVAALALLFAIHSYKPAPFFVLDEIDAALDNTNIGKVANYIKEQSTCNFQAIVISLKEEFYTKAESLIGVYPEQGDCVISKVLTFDLTKYPDANPNPNEQ
- Fold change (+UV/-UV): 0.4286

B3: AAAT_HUMAN (protein, UniProt Q15758 1-541, looked up)
Neutral amino acid …: MVADPPRDSKGLAAAEPTANGGLALASIEDQGAAAGGYCGSRDQVRRCLRANLLVLLTVVAVVAGVALGLGVSGAGGALALGPERLSAFVFPGELLLRLLRMIILPLVVCSLIGGAASLDPGALGRLGAWALLFFLVTTLLASALGVGLALALQPGAASAAINASVGAAGSAENAPSKEVLDSFLDLARNIFPSNLVSAAFRSYSTTYEERNITGTRVKVPVGQEVEGMNILGLVVFAIVFGVALRKLGPEGELLIRFFNSFNEATMVLVSWIMWYAPVGIMFLVAGKIVEMEDVGLLFARLGKYILCCLLGHAIHGLLVLPLIYFLFTRKNPYRFLWGIVTPLATAFGTSSSSATLPLMMKCVEENNGVAKHISRFILPIGATVNMDGAALFQCVAAVFIAQLSQQSLDFVKIITILVTATASSVGAAGIPAGGVLTLAIILEAVNLPVDHISLILAVDWLVDRSCTVLNVEGDALGAGLLQNYVDRTESRSTEPELIQVKSELPLDPLPVPTEEGNPLLKHYRGPAGDATVASEKESVM
- Fold change (+UV/-UV): 0.25

B4: SYIM_HUMAN (protein, UniProt Q9NSE4 49-1012, looked up)
Isoleucine--tRNA ligase, …: SNHQPNSNSGRYRDTVLLPQTSFPMKLLGRQQPDTELEIQQKCGFSELYSWQRERKVKTEFCLHDGPPYANGDPHVGHALNKILKDIANRFHMMNGSKIHFVPGWDCHGLPIEIKVLSELGREAQNLSAMEIRKKARSFAKAAIEKQKSAFIRWGIMADWNNCYYTFDGKYEAKQLRTFYQMYDKGLVYRSYKPVFWSPSSRTALAEAELEYNPEHVSRSIYVKFPLLKPSPKLASLIDGSSPVSILVWTTQPWTIPANEAVCYMPESKYAVVKCSKSGDLYVLAADKVASVASTLETTFETISTLSGVDLENGTCSHPLIPDKASPLLPANHVTMAKGTGLVHTAPAHGMEDYGVASQHNLPMDCLVDEDGVFTDVAGPELQNKAVLEEGTDVVIKMLQTAKNLLKEEKLVHSYPYDWRTKKPVVIRASKQWFINITDIKTAAKELLKKVKFIPGSALNGMVEMMDRRPYWCISRQRVWGVPIPVFHHKTKDEYLINSQTTEHIVKLVEQHGSDIWWTLPPEQLLPKEVLSEVGGPDALEYVPGQDILDIWFDSGTSWSYVLPGPDQRADLYLEGKDQLGGWFQSSLLTSVAARKRAPYKTVIVHGFTLGEKGEKMSKSLGNVIHPDVVVNGGQDQSKEPPYGADVLRWWVADSNVFTEVAIGPSVLNAARDDISKLRNTLRFLLGNVADFNPETDSIPVNDMYVIDQYMLHLLQDLANKITELYKQYDFGKVVRLLRTFYTRELSNFYFSIIKDRLYCEKENDPKRRSCQTALVEILDVIVRSFAPILPHLAEEVFQHIPYIKEPKSVFRTGWISTSSIWKKPGLEEAVESACAMRDSFLGSIPGKNAAEYKVITVIEPGLLFEIIEMLQSEETSSTSQLNELMMASESTLLAQEPREMTADVIELKGKFLINLEGGDIREESSYKVIVMPTTKEKCPRCWKYTAESSDTLCPRCAEVVSGK
- Fold change (+UV/-UV): 4

B5: RBM10_HUMAN (protein, UniProt P98175 1-930, looked up)
RNA-binding protein 10: MEYERRGGRGDRTGRYGATDRSQDDGGENRSRDHDYRDMDYRSYPREYGSQEGKHDYDDSSEEQSAEDSYEASPGSETQRRRRRRHRHSPTGPPGFPRDGDYRDQDYRTEQGEEEEEEEDEEEEEKASNIVMLRMLPQAATEDDIRGQLQSHGVQAREVRLMRNKSSGQSRGFAFVEFSHLQDATRWMEANQHSLNILGQKVSMHYSDPKPKINEDWLCNKCGVQNFKRREKCFKCGVPKSEAEQKLPLGTRLDQQTLPLGGRELSQGLLPLPQPYQAQGVLASQALSQGSEPSSENANDTIILRNLNPHSTMDSILGALAPYAVLSSSNVRVIKDKQTQLNRGFAFIQLSTIVEAAQLLQILQALHPPLTIDGKTINVEFAKGSKRDMASNEGSRISAASVASTAIAAAQWAISQASQGGEGTWATSEEPPVDYSYYQQDEGYGNSQGTESSLYAHGYLKGTKGPGITGTKGDPTGAGPEASLEPGADSVSMQAFSRAQPGAAPGIYQQSAEASSSQGTAANSQSYTIMSPAVLKSELQSPTHPSSALPPATSPTAQESYSQYPVPDVSTYQYDETSGYYYDPQTGLYYDPNSQYYYNAQSQQYLYWDGERRTYVPALEQSADGHKETGAPSKEGKEKKEKHKTKTAQQIAKDMERWARSLNKQKENFKNSFQPISSLRDDERRESATADAGYAILEKKGALAERQHTSMDLPKLASDDRPSPPRGLVAAYSGESDSEEEQERGGPEREEKLTDWQKLACLLCRRQFPSKEALIRHQQLSGLHKQNLEIHRRAHLSENELEALEKNDMEQMKYRDRAAERREKYGIPEPPEPKRRKYGGISTASVDFEQPTRDGLGSDNIGSRMLQAMGWKEGSGLGRKKQGIVTPIEAQTRVRGSGLGARGSSYGVTSTESYKETLHKTMVTRFNEAQ
- Fold change (+UV/-UV): 0

B6: RB12B_HUMAN (protein, UniProt Q8IXT5 1-1001, looked up)
RNA-binding protein 12B: MAVVIRLLGLPFIAGPVDIRHFFTGLTIPDGGVHIIGGEIGEAFIIFATDEDARRAISRSGGFIKDSSVELFLSSKAEMQKTIEMKRTDRVGRGRPGSGTSGVDSLSNFIESVKEEASNSGYGSSINQDAGFHTNGTGHGNLRPRKTRPLKAENPYLFLRGLPYLVNEDDVRVFFSGLCVDGVIFLKHHDGRNNGDAIVKFASCVDASGGLKCHRSFMGSRFIEVMQGSEQQWIEFGGNAVKEGDVLRRSEEHSPPRGINDRHFRKRSHSKSPRRTRSRSPLGFYVHLKNLSLSIDERDLRNFFRGTDLTDEQIRFLYKDENRTRYAFVMFKTLKDYNTALSLHKTVLQYRPVHIDPISRKQMLKFIARYEKKRSGSLERDRPGHVSQKYSQEGNSGQKLCIYIRNFPFDVTKVEVQKFFADFLLAEDDIYLLYDDKGVGLGEALVKFKSEEQAMKAERLNRRRFLGTEVLLRLISEAQIQEFGVNFSVMSSEKMQARSQSRERGDHSHLFDSKDPPIYSVGAFENFRHQLEDLRQLDNFKHPQRDFRQPDRHPPEDFRHSSEDFRFPPEDFRHSPEDFRRPREEDFRRPSEEDFRRPWEEDFRRPPEDDFRHPREEDWRRPLEEDWRRPLEEDFRRSPTEDFRQLPEEDFRQPPEEDLRWLPEEDFRRPPEEDWRRPPEEDFRRPLQGEWRRPPEDDFRRPPEEDFRHSPEEDFRQSPQEHFRRPPQEHFRRPPPEHFRRPPPEHFRRPPPEHFRRPPPEHFRRPPPEHFRRPPPEHFRRPPQEHFRRPPQEHFRRSREEDFRHPPDEDFRGPPDEDFRHPPDEDFRSPQEEDFRCPSDEDFRQLPEEDLREAPEEDPRLPDNFRPPGEDFRSPPDDFRSHRPFVNFGRPEGGKFDFGKHNMGSFPEGRFMPDPKINCGSGRVTPIKIMNLPFKANVNEILDFFHGYRIIPDSVSIQYNEQGLPTGEAIVAMINYNEAMAAIKDLNDRPVGPRKVKLTLL
- Fold change (+UV/-UV): 0.8462
